Assay results as given in the supplement of paper PMC12338614.
± gives the uncertainty stated by the source.

B1: library; numbered along this chain (parent)
chain: MEVVDPQQLGMFTEGELMSVGMDTFIHRIDSTEVIYQPRRKRAKLIGKYLMGDLLGEGSYGKVKEVLDSETLCRRAVKILKKKKLRRIPNGEANVKKEIQLLRRLRHKNVIQLVDVLYNEEKQKMYMVMEYCVCGMQEMLDSVPEKRFPVCQAHGYFCQLIDGLEYLHSQGIVHKDIKPGNLLLTTGGTLKISDLGVAEALHPFAADDTCRTSQGSPAFQPPEIANGLDTFSGFKVDIWSAGVTLYNITTGLYPFEGDNIYKLFENIGKGSYAIPGDCGPPLSDLLKGMLEYEPAKRFSIRQIRQHSWFRKKHPPAEAPVPIPPSPDTKDRWRSMTVVPYLEDLHGADEDEDLFDIEDDIIYTQDFTVPGQVPEEEASHNGQRRGLPKAVCMNGTEAAQLSTKSRAEGRAPNPARKACSASSKIRRLSACKQQ

Variants of: B1
Assay: STK11 functional score (HeLa growth suppression), rescaled enrichment; synonymous median = 1, nonsense median = 0 (normalised score)
Settings: with HeLa; variant type: missense
Procedure: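 Deep mutational scan (TileSeq/POPCode codon randomisation) of full-length codon-optimised STK11 cDNA integrated at a Bxb1 landing pad (AAVS1) in HeLa cells. Restoring functional STK11 suppresses HeLa proliferation. Variant frequencies were measured by NGS before and after about two weeks of growth. The error-corrected enrichment log-ratio was rescaled so that synonymous median = 1 and nonsense median = 0, scores above 1 were compressed, and codon-level and three biological replicate scores were combined; error is the bootstrapped standard error. Scale: synonymous median = 1, nonsense median = 0; below 0.5 = damaging.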
G10A was tested, and the STK11 functional score was 1.38 ± 0.17. For G10C, the STK11 functional score was 1.4 ± 0.19. G10P gave an STK11 functional score of 1.18 ± 0.49. Variant G10F has an STK11 functional score of 1.56 ± 0.41. G10V was tested, and the STK11 functional score was 0.971 ± 0.18. For G10Y, the STK11 functional score was 1.18 ± 0.15. In the case of G10W, the STK11 functional score is reported as 1.33 ± 0.084. In the case of G10M, the STK11 functional score is reported as 1.51 ± 0.42. With G10L the STK11 functional score was 1.63 ± 0.21. E16A showed an STK11 functional score of 1.53 ± 0.46. Work on E16C yielded an STK11 functional score of 1.38 ± 0.69. E16Q showed an STK11 functional score of 1.16 ± 0.77. E16K gave an STK11 functional score of 0.291 ± 0.28. In the case of E16F, the STK11 functional score is reported as 1.42 ± 0.42. E16S gave an STK11 functional score of 1.39 ± 0.17. E16L was tested, and the STK11 functional score was 1.15 ± 0.29. With G21R the STK11 functional score was 1.2 ± 0.64. For G21A, the STK11 functional score was 1.39 ± 0.38. With D30S the STK11 functional score was 1.7 ± 0.19. Work on D30E yielded an STK11 functional score of 1.13 ± 0.49. In the case of D30R, the STK11 functional score is reported as 1.69 ± 0.13. Work on D30G yielded an STK11 functional score of 1.52 ± 0.3. Variant D30P has an STK11 functional score of 1.67 ± 0.17. With D30H the STK11 functional score was 1.31 ± 0.68. Work on D30C yielded an STK11 functional score of 1.44 ± 0.51. With D30Y the STK11 functional score was -0.0227 ± 0.33. Work on D30W yielded an STK11 functional score of 1.3 ± 0.58. For D30L, the STK11 functional score was 1.07 ± 0.12. D30T gave an STK11 functional score of 1.62 ± 0.21. In the case of D30A, the STK11 functional score is reported as 1.7 ± 0.28. Work on D30V yielded an STK11 functional score of 0.22 ± 0.12. L17A gave an STK11 functional score of 1.68 ± 0.37. L17Y was tested, and the STK11 functional score was 1.6 ± 0.25. L17T was tested, and the STK11 functional score was 1.62 ± 0.18. For L17R, the STK11 functional score was 1.22 ± 0.26. L17V gave an STK11 functional score of 1.35 ± 0.12. Variant L17I has an STK11 functional score of 0.851 ± 0.16. L17D showed an STK11 functional score of 1.7 ± 0.12. Work on L17S yielded an STK11 functional score of 1.35 ± 0.55. Work on L17H yielded an STK11 functional score of 1.53 ± 0.16. L17G was tested, and the STK11 functional score was 1.53 ± 0.25. Variant L17Q has an STK11 functional score of 1.71 ± 0.4. L17F was tested, and the STK11 functional score was 0.925 ± 0.58. Work on L17P yielded an STK11 functional score of 1.6 ± 0.25. L17W was tested, and the STK11 functional score was 1.56 ± 0.24. For L17M, the STK11 functional score was 0.968 ± 0.24. For H27R, the STK11 functional score was 1.03 ± 0.18. H27Y gave an STK11 functional score of 1.24 ± 0.73. Work on H27G yielded an STK11 functional score of 1.54 ± 0.21. Work on H27M yielded an STK11 functional score of 1.63 ± 0.12. H27I showed an STK11 functional score of 0.637 ± 0.096. H27W showed an STK11 functional score of 0.807 ± 0.27. H27V was tested, and the STK11 functional score was 1.05 ± 0.12. Variant H27P has an STK11 functional score of 1.35 ± 0.35. Work on H27D yielded an STK11 functional score of 1.22 ± 0.62. For H27L, the STK11 functional score was 1.35 ± 0.19. H27Q was tested, and the STK11 functional score was 0.792 ± 0.18. Work on H27S yielded an STK11 functional score of 0.805 ± 0.23. For H27A, the STK11 functional score was 1.19 ± 0.11. For E14F, the STK11 functional score was 1.13 ± 0.088. For E14K, the STK11 functional score was 0.385 ± 0.59. E14Q showed an STK11 functional score of 1.35 ± 0.3. In the case of E14S, the STK11 functional score is reported as 1.34 ± 0.15. Work on E14D yielded an STK11 functional score of 1.22 ± 0.3. With E14W the STK11 functional score was 0.426 ± 0.6. E14L gave an STK11 functional score of 1 ± 0.14. E14Y gave an STK11 functional score of 1.34 ± 0.49. In the case of E14V, the STK11 functional score is reported as 1.03 ± 0.29. With E14I the STK11 functional score was 1.4 ± 0.14. E14P gave an STK11 functional score of 1.65 ± 0.34. E14M showed an STK11 functional score of 1.62 ± 0.18. E14A gave an STK11 functional score of 0.905 ± 0.29. Variant F12L has an STK11 functional score of 1.23 ± 0.68. For Q7I, the STK11 functional score was 1.61 ± 0.17. For Q7Y, the STK11 functional score was 1.22 ± 0.087. With Q7V the STK11 functional score was 1.37 ± 0.27. In the case of Q7W, the STK11 functional score is reported as 1.1 ± 0.13. With Q7S the STK11 functional score was 1.02 ± 0.31. Work on Q7M yielded an STK11 functional score of 0.16 ± 0.091. For Q7C, the STK11 functional score was 1.55 ± 0.45. With Q7D the STK11 functional score was 1.33 ± 0.08. Q7E was tested, and the STK11 functional score was 1.27 ± 0.34. Q7G showed an STK11 functional score of 0.637 ± 0.11. Q7A gave an STK11 functional score of 1 ± 0.43. With Q7R the STK11 functional score was 1.38 ± 0.13. Q7L showed an STK11 functional score of 1.25 ± 0.13. For Q7P, the STK11 functional score was 0.819 ± 0.22. For R28V, the STK11 functional score was 1.03 ± 0.29. R28L gave an STK11 functional score of 0.637 ± 0.15. R28C showed an STK11 functional score of 0.873 ± 0.22. With R28I the STK11 functional score was 1.41 ± 0.49. With R28A the STK11 functional score was 1.52 ± 0.34. Work on R28S yielded an STK11 functional score of 1.59 ± 0.13. Variant R28P has an STK11 functional score of 0.47 ± 0.12. Work on R28G yielded an STK11 functional score of 0.685 ± 0.16. Work on R28W yielded an STK11 functional score of 1.18 ± 0.092. G15S gave an STK11 functional score of 1.28 ± 0.12. Variant G15P has an STK11 functional score of 1.66 ± 0.28. For G15L, the STK11 functional score was 1.48 ± 0.2. Work on G15W yielded an STK11 functional score of 0.148 ± 0.38. In the case of G15A, the STK11 functional score is reported as 0.969 ± 0.36. G15E was tested, and the STK11 functional score was 1.68 ± 0.46. For G15C, the STK11 functional score was 1.15 ± 0.21. With G15V the STK11 functional score was 1.1 ± 0.24. With G15F the STK11 functional score was 1.05 ± 0.1. G15D gave an STK11 functional score of 1.72 ± 0.12. For G15Y, the STK11 functional score was 1.58 ± 0.29. Work on G15T yielded an STK11 functional score of 1.68 ± 0.17. With G15R the STK11 functional score was 1.4 ± 0.4. G15N showed an STK11 functional score of 1.69 ± 0.15. V3G gave an STK11 functional score of 1.47 ± 0.26. V3I was tested, and the STK11 functional score was 1.06 ± 0.43. For V3L, the STK11 functional score was 0.558 ± 0.13. Work on V3F yielded an STK11 functional score of 0.991 ± 0.32. Variant V3D has an STK11 functional score of -0.174 ± 0.11. V3W was tested, and the STK11 functional score was 0.953 ± 0.5. V3M showed an STK11 functional score of 0.72 ± 0.44. V3P gave an STK11 functional score of 1.69 ± 0.37. Work on V3A yielded an STK11 functional score of 1.46 ± 0.16. V3S gave an STK11 functional score of 1.35 ± 0.17. T24C showed an STK11 functional score of 1.22 ± 0.12. In the case of T24F, the STK11 functional score is reported as 1.37 ± 0.11. T24S gave an STK11 functional score of 1.15 ± 0.41. With T24I the STK11 functional score was 1.02 ± 0.2. T24A was tested, and the STK11 functional score was 1.36 ± 0.46. In the case of T24W, the STK11 functional score is reported as 1.6 ± 0.093. T24P showed an STK11 functional score of 1.65 ± 0.26. T24L was tested, and the STK11 functional score was 1.18 ± 0.13. T24V showed an STK11 functional score of 0.875 ± 0.17. With T24Y the STK11 functional score was 1.49 ± 0.37. With T24G the STK11 functional score was 1.43 ± 0.13. T24H gave an STK11 functional score of 1.7 ± 0.17. With T24R the STK11 functional score was 0.782 ± 0.14. E33V gave an STK11 functional score of 0.509 ± 0.087. For E33I, the STK11 functional score was 0.611 ± 0.19. Work on E33P yielded an STK11 functional score of 1.4 ± 0.33. Work on E33A yielded an STK11 functional score of 1.32 ± 0.2. Variant E33C has an STK11 functional score of 1.11 ± 0.49. E33G gave an STK11 functional score of 0.902 ± 0.25. For E33Y, the STK11 functional score was 1.21 ± 0.2. E33M gave an STK11 functional score of 1.44 ± 0.2. Work on E33D yielded an STK11 functional score of 1.09 ± 0.39. Variant E33W has an STK11 functional score of 0.795 ± 0.09. In the case of E33N, the STK11 functional score is reported as 1.33 ± 0.15. Variant E33T has an STK11 functional score of 1.69 ± 0.25. E33L showed an STK11 functional score of 1 ± 0.13. In the case of E33F, the STK11 functional score is reported as 0.855 ± 0.23. Work on E33S yielded an STK11 functional score of 0.81 ± 0.15. Variant I35G has an STK11 functional score of 1.25 ± 0.57. I35D gave an STK11 functional score of 1.67 ± 0.17. For I35A, the STK11 functional score was 1.43 ± 0.11. I35F was tested, and the STK11 functional score was 0.949 ± 0.091. I35E showed an STK11 functional score of 1.66 ± 0.16. In the case of I35M, the STK11 functional score is reported as 0.908 ± 0.52. Work on I35L yielded an STK11 functional score of 1.11 ± 0.1. In the case of I35N, the STK11 functional score is reported as 1.02 ± 0.76. For I35C, the STK11 functional score was 1.39 ± 0.25. With M11C the STK11 functional score was 1.69 ± 0.36. M11W was tested, and the STK11 functional score was 1.71 ± 0.11. Work on M11S yielded an STK11 functional score of 1.33 ± 0.41. M11G gave an STK11 functional score of 1.4 ± 0.54. Work on M11V yielded an STK11 functional score of 1.55 ± 0.48. In the case of M11T, the STK11 functional score is reported as 1.23 ± 0.65. M11L gave an STK11 functional score of 1.52 ± 0.23. M11K showed an STK11 functional score of 1.32 ± 0.44. Variant F25I has an STK11 functional score of 1.69 ± 0.52. In the case of F25C, the STK11 functional score is reported as 1.63 ± 0.46.
